In publication PMC12402098, “YTHDF3 recognizes DNA N6-methyladenine and recruits ALKBH1 for 6mA removal from genomic DNA” (The EMBO Journal, 2025):
Substitutions are numbered along the chain they refer to. Each block holds one binder with its values, some of them ahead of it.

Legend:
YTHDF3 wild type [1] = target: T1, YTHDF3 wild type (UniProt Q7Z739 1-585); test: EMSA; SPR: 1x HBS-EP+, biotin-DNA on SA chip (~500 RU), 30 ul/min; EMSA: LightShift kit, 30 C 20 min, then 2% glutaraldehyde on ice 15 min, 5% native gel; pull-down:; details: protein: recombinant, tags: His
T1 sequence: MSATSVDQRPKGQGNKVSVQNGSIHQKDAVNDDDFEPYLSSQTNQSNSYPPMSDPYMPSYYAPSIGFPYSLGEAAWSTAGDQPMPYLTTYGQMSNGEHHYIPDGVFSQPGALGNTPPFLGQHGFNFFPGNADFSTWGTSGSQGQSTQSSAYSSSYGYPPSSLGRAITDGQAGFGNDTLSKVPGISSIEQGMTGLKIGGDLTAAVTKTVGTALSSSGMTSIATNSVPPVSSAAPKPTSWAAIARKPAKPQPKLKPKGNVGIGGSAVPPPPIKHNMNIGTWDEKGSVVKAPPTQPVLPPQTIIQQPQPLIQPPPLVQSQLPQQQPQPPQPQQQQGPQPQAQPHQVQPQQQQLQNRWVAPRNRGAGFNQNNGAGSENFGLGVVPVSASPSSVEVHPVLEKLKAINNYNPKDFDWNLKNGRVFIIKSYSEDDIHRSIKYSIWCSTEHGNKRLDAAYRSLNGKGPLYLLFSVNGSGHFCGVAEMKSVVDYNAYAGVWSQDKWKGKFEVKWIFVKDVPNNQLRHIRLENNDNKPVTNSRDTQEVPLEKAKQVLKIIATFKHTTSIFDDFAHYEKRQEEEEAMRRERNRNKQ

[2] = target: T2, YTHDF3-His MT6mA (W438R/W492R) (UniProt Q7Z739 1-585, W438R | W492R); test: pull-down; GST pull-down: recombinant YTHDF3-His proteins incubated with recombinant ALKBH1-GST protein beads at 4 °C for 1 h, washed three times, eluted with reduced L-glutathione, western blot; details: both partners purified
T2 construct: YTHDF3 with W438R/W492R in the YTH domain, in pET 26b vector; also called YTHDF3-MT6mA-His; YTHDF3 W438R/W492R mutant; source: E. coli BL21 (DE3), purified (His-tag protein purification kit)
T2 sequence (looked up): T1 sequence with W438R, W492R

YTHDF3-His = target: T3, YTHDF3-His (UniProt Q7Z739 1-585); test: native gel or EMSA; recombinant ALKBH1 and increasing recombinant YTHDF3 with biotin-labeled 6mA-dsDNA oligos, 30 °C 20 min, 2% glutaraldehyde on ice 15 min, 5% nondenaturing gel; details: both partners purified
T3 construct: YTHDF3 inserted into pET 26b vector; pET26b would give a C-terminal His tag (surmise); also called recombinant YTHDF3; wild-type YTHDF3; source: E. coli BL21 (DE3), purified (His-tag protein purification kit); also coexpressed with ALKBH1 in E. coli, in lysate
T3 sequence (looked up): T1 sequence

ALKBH1;YTHDF3 wild type = target: T4, ALKBH1;YTHDF3 wild type (Homo sapiens?;Homo sapiens?, UniProt Q13686;Q7Z739 1-389;1-585, |); test: pull-down; YTHDF3 increases ALKBH1 binding; SPR: 1x HBS-EP+, biotin-DNA on SA chip (~500 RU), 30 ul/min; EMSA: LightShift kit, 30 C 20 min, then 2% glutaraldehyde on ice 15 min, 5% native gel; pull-down:; details: protein: recombinant;recombinant
T4 sequence 1: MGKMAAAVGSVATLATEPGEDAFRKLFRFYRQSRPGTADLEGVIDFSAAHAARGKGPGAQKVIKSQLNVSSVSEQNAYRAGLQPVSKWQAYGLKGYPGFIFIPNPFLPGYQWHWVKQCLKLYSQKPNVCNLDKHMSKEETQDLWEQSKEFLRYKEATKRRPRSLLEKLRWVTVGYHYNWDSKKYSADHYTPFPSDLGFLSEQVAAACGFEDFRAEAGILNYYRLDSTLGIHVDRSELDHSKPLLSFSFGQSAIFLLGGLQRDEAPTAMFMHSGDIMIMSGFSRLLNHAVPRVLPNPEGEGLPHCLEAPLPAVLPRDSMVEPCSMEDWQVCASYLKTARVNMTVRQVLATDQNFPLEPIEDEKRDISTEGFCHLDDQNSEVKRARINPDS
T4 sequence 2: T1 sequence

YTHDF3 wild type [3] = target: T1, YTHDF3 wild type; test: EMSA, pull-down; SPR: 1x HBS-EP+, biotin-DNA on SA chip (~500 RU), 30 ul/min; EMSA: LightShift kit, 30 C 20 min, then 2% glutaraldehyde on ice 15 min, 5% native gel; pull-down:; details: protein: recombinant, tags: His
[4] = label: 3' biotin strand 1, duplex with bulge of unpaired nt in strand 1 around 6mA
[5] = label: 3' biotin strand 1, duplex with internal mismatch bubble around 6mA

B1: ss-m6A-oligo (ssRNA)
RNA: CGUCUCGGACUCGGACUGCU
modifications: N6-methyladenosine at A9
- binding result (YTHDF3 wild type [1]; label: 5' biotin): binds

B2: tRNA-m1A-oligo (ssRNA)
RNA: CCCGGUUCGAUUCCCGG
modifications: N1-methyladenosine at A10
- binding result (YTHDF3 wild type [1]; label: 3' biotin): no binding

- binding result [2]: binds
- binding result (YTHDF3-His): binds
B3: ALKBH1-GST (enzyme, UniProt Q13686 1-389, looked up)
chain: T4 sequence 1
notes: ALKBH1 inserted into pGEX vector; it would add GST at the N-terminus (surmise). 'Recombinant ALKBH1' of EMSA, DNA pull-down and demethylase assays may be this protein or ALKBH1-His; also called recombinant ALKBH1; A1; source: E. coli BL21 (DE3), purified (glutathione Sepharose; on beads or eluted with reduced L-glutathione)

B4: Bulge-6mA (mixed)
DNA 1: AACTTCGTGCAGGCATGGGATCTTGTCTACT
DNA 2: AGTAGACACATGCCTGCACGAAGTT
modifications: N6-methyl-dA at A20 of strand 1
- binding result (ALKBH1;YTHDF3 wild type; [4]): binds
- binding result (YTHDF3 wild type [3]; [4]): binds

B5: ss-6mA (ssDNA)
DNA: B4 DNA 1
modifications: N6-methyl-dA at A20
- binding result (ALKBH1;YTHDF3 wild type; label: 3' biotin): binds
- binding result (YTHDF3 wild type [3]; label: 3' biotin): binds

B6: Bubble-6mA (mixed)
DNA 1: B4 DNA 1
DNA 2: AGTAGACAGTCGATCATGCCTGCACGAAGTT
modifications: N6-methyl-dA at A20 of strand 1
- binding result (ALKBH1;YTHDF3 wild type; [5]): binds
- binding result (YTHDF3 wild type [3]; [5]): binds
